Test results reported in patent US8420776 (US Dept. of Health and Human Services, dated 2013).
Where a chain is given by its changes, count along the chain named.

B1: GST fusion of the entire gp78 cytoplasmic tail (gp78C; residues 309-643 of SEQ ID NO:2) (other)
chain: IRRHKNYLRVVGNMEARFAVATPEELAVNNDDCAICWDSMQAARKLPCGHLFHNSCLRSWLEQDTSCPTCRMSLNIADNNRVREEHQGENLDENLVPVAAAEGRPRLNQHNHFFHFDGSRIASWLPSFSVEVMHTTNILGITQASNSQLNAMAHQIQEMFPQVPYHLVLQDLQLTRSVEITTDNILEGRIQVPFPTQRSDSIRPALNSPVERPSSDQEEGETSAQTERVPLDLSPRLEETLDFGEVEVEPSEVEDFEARGSRFSKSADERQRMLVQRKDELLQQARKRFLNKSSEDDAASESFLPLEGASSDPVTLRRRMLAAAAERRLQKQQTS
notes: also called gp78 cytoplasmic domain; not shown: glutathione S-transferase (GST) fusion partner, N-terminal (pGEX type vector)
B2: GST-gp78CCue-m1, 2: gp78 C-terminal region with both sets of Cue domain mutations (other)
chain: B1 chain with M159G, F160G, P161R, V168R, D171V, L172D
notes: not shown: glutathione S-transferase (GST) fusion partner, N-terminal (pGEX type vector)
B3: GST-gp78CCue-m1: complete C-terminal region of gp78 with MFP to GGR mutation of residues 467 to 469 (other)
chain: B1 chain with M159G, F160G, P161R
notes: as for B2
B4: GST-gp78Cuem2: gp78 C-terminal region with VLQDL to RLQVD mutation of residues 476 to 480 (other)
chain: B1 chain with V168R, D171V, L172D
notes: as for B2
B5: Ube2G2/MmUbc7, in vitro translated and labelled with 35S-methionine (enzyme)
chain: MAGTALKRLMAEYKQLTLNPPEGIVAGPMNEENFFEWEALIMGPEDTCFEFGVFPAILSFPLDYPLSPPKMRFTCEMFHPNIYPDGRVCISILHAPGDDPMGYESSAERWSPVQSVEKILLSVVSMLAEPNDESGANVDASKMWRDDREQFYKIAKQIVQKSLGL
modifications: 35S-methionine label
notes: Translated in wheat germ or rabbit reticulocyte lysate; also called in vitro translated Ube2G2
B6: endogenous Ube2g1 of HEK 293T cells (enzyme, human, UniProt P62253 2-170, looked up)
chain: TELQSALLLRRQLAELNKNPVEGFSAGLIDDNDLYRWEVLIIGPPDTLYEGGVFKAHLTFPKDYPLRPPKMKFITEIWHPNVDKNGDVCISILHEPGEDKYGYEKPEERWLPIHTVETIMISVISMLADPNGDSPANVDAAKEWREDRNGEFKRKVARCVRKSQETAFE
B7: yeast Ubc7p, in vitro translated and labelled with 35S-methionine (enzyme, UniProt Q02159 1-165, looked up)
chain: MSKTAQKRLLKELQQLIKDSPPGIVAGPKSENNIFIWDCLIQGPPDTPYADGVFNAKLEFPKDYPLSPPKLTFTPSILHPNIYPNGEVCISILHSPGDDPNMYELAEERWSPVQSVEKILLSVMSMLSEPNIESGANIDACILWRDNRPEFERQVKLSILKSLGF
modifications: 35S-methionine label
B8: full length gp78 with both Cue domain mutations (gp78Cue-m1, 2) (enzyme)
chain: MPLLFLERFPWPSLRTYTGLSGLALLGTIISAYRALSQPEAGPGEPDQLTASLQPEPPAPARPSAGGPRARDVAQYLLSDSLFVWVLVNTACCVLMLVAKLIQCIVFGPLRVSERQHLKDKFWNFIFYKFIFIFGVLNVQTVEEVVMWCLWFAGLVFLHLMVQLCKDRFEYLSFSPTTPMSSHGRVLSLLVAMLLSCCGLAAVCSITGYTHGMHTLAFMAAESLLVTVRTAHVILRYVIHLWDLNHEGTWEGKGTYVYYTDFVMELTLLSLDLMHHIHMLLFGNIWLSMASLVIFMQLRYLFHEVQRRIRRHKNYLRVVGNMEARFAVATPEELAVNNDDCAICWDSMQAARKLPCGHLFHNSCLRSWLEQDTSCPTCRMSLNIADNNRVREEHQGENLDENLVPVAAAEGRPRLNQHNHFFHFDGSRIASWLPSFSVEVMHTTNILGITQASNSQLNAMAHQIQEGGRQVPYHLRLQVDQLTRSVEITTDNILEGRIQVPFPTQRSDSIRPALNSPVERPSSDQEEGETSAQTERVPLDLSPRLEETLDFGEVEVEPSEVEDFEARGSRFSKSADERQRMLVQRKDELLQQARKRFLNKSSEDDAASESFLPLEGASSDPVTLRRRMLAAAAERRLQKQQTS
notes: Full length, expressed in cells; also called Cue12M
B9: full length gp78 with the E2-m2 mutation (gp78E2-m2) (enzyme)
chain: MPLLFLERFPWPSLRTYTGLSGLALLGTIISAYRALSQPEAGPGEPDQLTASLQPEPPAPARPSAGGPRARDVAQYLLSDSLFVWVLVNTACCVLMLVAKLIQCIVFGPLRVSERQHLKDKFWNFIFYKFIFIFGVLNVQTVEEVVMWCLWFAGLVFLHLMVQLCKDRFEYLSFSPTTPMSSHGRVLSLLVAMLLSCCGLAAVCSITGYTHGMHTLAFMAAESLLVTVRTAHVILRYVIHLWDLNHEGTWEGKGTYVYYTDFVMELTLLSLDLMHHIHMLLFGNIWLSMASLVIFMQLRYLFHEVQRRIRRHKNYLRVVGNMEARFAVATPEELAVNNDDCAICWDSMQAARKLPCGHLFHNSCLRSWLEQDTSCPTCRMSLNIADNNRVREEHQGENLDENLVPVAAAEGRPRLNQHNHFFHFDGSRIASWLPSFSVEVMHTTNILGITQASNSQLNAMAHQIQEMFPQVPYHLVLQDLQLTRSVEITTDNILEGRIQVPFPTQRSDSIRPALNSPVERPSSDQEEGETSAQTERVPLDLSPRLEETLDFGEVEVEPSEVEDFEARGSRFSKSADERAAAGGGRKDELLQQARKRFLNKSSEDDAASESFLPLEGASSDPVTLRRRMLAAAAERRLQKQQTS
notes: Full length, expressed in cells; also called ΔB in the context of the full length gp78
B10: GST fusion of the gp78 cytoplasmic tail beginning after the RING finger (residues 429-643 of SEQ ID NO:2) (other)
chain: IASWLPSFSVEVMHTTNILGITQASNSQLNAMAHQIQEMFPQVPYHLVLQDLQLTRSVEITTDNILEGRIQVPFPTQRSDSIRPALNSPVERPSSDQEEGETSAQTERVPLDLSPRLEETLDFGEVEVEPSEVEDFEARGSRFSKSADERQRMLVQRKDELLQQARKRFLNKSSEDDAASESFLPLEGASSDPVTLRRRMLAAAAERRLQKQQTS
notes: also called gp78CΔR; gp78CAR; not shown: GST carrier and the pGEX4T-1 linker (N-terminal)
B11: GST fusion of the cytoplasmic domain of yeast Cue1p (Cue1p 24-203) (other, UniProt P38428 24-203, looked up)
chain: QSNQHPSAQRLSATGVNAHGRPQGSTQNALRRTGRVNGGHPVTTQMVETVQNLAPNLHPEQIRYSLENTGSVEETVERYLRGDEFSFPPGFEPSRAPMGANAAVDNNAAGGGEFNDPRKKNMICAENLLDKFHVDLNEDMSNLSFKDLDIEERKRLLVWQARKNLETKLQSDKDLQSLLT
notes: range 24-203; also called GST-Cue1p 24-203; not shown: glutathione S-transferase (GST) fusion partner, N-terminal (pGEX4T-1)
B12: GST-AO7 (92 to 259), the RING finger and surrounding regions of the E3 AO7 (other)
chain: QIHKISQALGHVAKEGLGTAMLYELIEKGKEILTDNNIPHGQCVICLYGFQEKEAFTKTPCYHYFHCHCLARYIQHMEQELTTQEQEQERQHVVTKQKAVGVQCPVCREPLVYDLASLKAAPEPQQPMELYQPSAESLRQQEELKLLYQRQQEKGGIIDLEAERNRYF
notes: range 92-259; also called A07; not shown: glutathione S-transferase (GST) fusion partner
B13: Ube2G1, in vitro translated and labelled with 35S-methionine (enzyme, rat, UniProt P62255 1-170, looked up)
chain: MTELQSALLLRRQLAELNKNPVEGFSAGLIDDNDLYRWEVLIIGPPDTLYEGGVFKAHLTFPKDYPLRPPKMKFITEIWHPNVDKNGDVCISILHEPGEDKYGYEKPEERWLPIHTVETIMISVISMLADPNGDSPANVDAAKEWREDRNGEFKRKVARCVRKSQETAFE
modifications: 35S-methionine label
notes: also called rat Ubc7 (Ube2g1)

Key:
[1] = target: B5; assay: GST pull-down, E2 translated in wheat germ and labelled with 35S-Met, equal counts
[2] = target: T1, lysine 48-linked (K48) tetra-ubiquitin (UniProt P0CG48 1-76, four ubiquitins joined by lysine 48 isopeptide links); assay: GST pull-down, anti-ubiquitin immunoblot
T1 construct: the monomer is its first 76 residues

[3] = target: B1; assay: GST pull-down
[4] = target: T2, N-terminal GFP fusion of gp78 residues 574-611 (GFP-574-611) (human, UniProt P42212 1-238 = GFP); assay: co-immunoprecipitation with GFP fusion from HEK 293T cells
T2 construct: the vector encodes the enhanced variant; also called G2BD

[5] = target: B1; assay: GST pull-down, E2 in vitro translated in wheat germ
[6] = target: B11; assay: as above
[7] = target: T3, Myc-Ube2G2, co-expressed in HEK 293T cells (human (100% identical to mouse MmUbc7), UniProt P60604 1-165); assay: anti-Myc immunoprecipitation from co-transfected cells, anti-gp78 immunoblot
T3 construct: Plasmid described in Tiwari and Weissman, 2001; also called Myc-MmUbc7; myc-tagged MmUbc7/Ube2G2
T3 sequence: B5 chain

[8] = target: B7; assay: GST pull-down, E2 in vitro translated in wheat germ
[9] = target: T4, UbcH5B, in vitro translated and labelled with 35S-methionine (human, UniProt P62837 1-147); assay: as above
[10] = target: B7; assay: GST pull-down, E2 translated in wheat germ and labelled with 35S-Met, equal counts
[11] = target: T4, UbcH5B, in vitro translated and …; assay: as above

Question: How did the “amount bound (% of input)” value [1] turn out when B1 was run?
Answer: Its value is ~10 % of input.

Question: Does B2 bind [2]?
Answer: Result: no binding (tested: 1 ug K48 tetra-ubiquitin)

Question: Does B3 bind [2]?
Answer: Result: no binding (tested: 1 ug K48 tetra-ubiquitin)

Question: Does B4 bind [2]?
Answer: Result: no binding (tested: 1 ug K48 tetra-ubiquitin)

Question: Does B5 bind [3]?
Answer: Result: binds

Question: Does B6 bind [4]?
Answer: Result: no binding

Question: Does B7 bind [5]?
Answer: Result: no binding

Question: Does B7 bind [6]?
Answer: Result: binds

Question: Does B8 bind [7]?
Answer: Result: binds

Question: Does B9 bind [7]?
Answer: Result: no binding

Question: Which results are given for B10?
Answer: binding result [8]: no binding; amount bound (% of input) [1]: ~10 % of input

Question: Does B11 bind [2]?
Answer: Result: no binding (tested: 1 ug K48 tetra-ubiquitin)

Question: Does B11 bind [9]?
Answer: Result: no binding

Question: What about the “amount bound (% of input)” value [1] of the same binder?
Answer: The value was ~10 % of input.

Question: What about the “amount bound (% of input)” value [10] of the same binder?
Answer: The value was ~10 % of input.

Question: How did the “amount bound (% of input)” value [11] turn out when B12 was run?
Answer: The value was ~10 % of input.

Question: Does B13 bind [5]?
Answer: Result: no binding

Question: Does B13 bind [6]?
Answer: Result: no binding
